Values of other authors in paper PMC9241160.

Target: Fibrinogen beta chain N-terminal fibrinopeptide (Homo sapiens) (UniProt P02675)

Q: For SdrG N2-N3 (from UniProt Q9KI13), which Kd is on record?
A: 400 nM
